A short description of this data set: yeast display, Sf9 membrane polyspecificity reagent, FACS + sequencing; frameworks hold sequencing errors. A digest of the protocol: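 A nanobody's polyreactivity label depends on the gate it was sorted from. Yeast display cells were stained with 10% biotinylated, detergent-solubilized Sf9 membrane reagent for 1 hour at 4 °C, enriched on streptavidin microbeads and sorted by FACS. The low and high (top ~1%) gates were set on anti-HA fluorescence for expression and streptavidin fluorescence for reagent binding.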
Regarding “QVQLVESGGGLVQAGGSLRLSCAASGSTFLTNDMGWYRQAHGKERELVAVITDGDTTYADSVKGRFTISRDNAKNTVYLQMNSLKPEDTAVYYCAADENYWSAGYDYWGQGTQVTVSS”, the “polyreactivity (PSR sort gate)” value is reported as “low polyreactivity”. With “QVQLVESGGGLVQAGGSLRLSCAASGSTLVFYAMGWYRQAPGKERELVAAITRSGGSTYYADSVKGRFTISRDNEKNTVYLQMNSLKPEDTAFYYCAADERYIYERDSWGQGTQVTVSS” the entry was “low polyreactivity”; with “QVQLVESGGGLVQAGGSLRLSCAASGRTFIKYALGSYRQAPGKERELVAAISRNGGSTNYADSVKGRFTISRDNAKNTVYLLMNSLKPEDPAVYYCAAVGTVSRTVGYNYWGQGSQVTVSS”, “high polyreactivity”. With “QVQLVESGGGLVQAGGSLRLSCAASGFIFYFNAMGWYRQAPGKERELVAAISASGGRTYYADSVKGRFTISRDNAKNTVYLQMNSLIPEDTAVYYCAADIRGYDYWGQGTQVTVSS” the entry was “high polyreactivity”. As for “QYQLVESGGGLVQAGGSLRLSCAASGSTFRANTMGWYRQAPGKERELVSTITRGTITKYADSVKGRFTISRDNAKNPVYLQMNSLKAEDTAVFDCAVDQAYVRRNWGYTGYVTYDHWGQGTQVTVSS”, the “polyreactivity (PSR sort gate)” value is listed as “high polyreactivity”. As for “QVQLVESGGGLVQAGGSLRLSCAASGFTLYTYAMGWYRQAPGKERELVAAISTGGGRTYYADSVKGRFTISRDNAKNTVYLQMNSLKPEDTAVYYCAADSLAKTGGTVGGDYWGQGTQVSVSS”, the “polyreactivity (PSR sort gate)” value is recorded as “high polyreactivity”.

On to “QVQLVESGGGLVQAGGSLRLSCAASGSIFVRNAMGWYRQAPGKERELVAGISASGGSTYYADSVKGRFTISRDNAKNTVYLQMNSLKPEDTAVYYCANKVSTRFARYRYDYWGQGTQVTVSS”, for which the “polyreactivity (PSR sort gate)” value is given as “high polyreactivity”. With “QVQLEESGGGLVQAGGSLRLSCAASGSTFGKNAMGWYRQAPGKERELVASITWRGGSTYYADSVKGRFTISRDNAKNTVYLQMNSLKPEDTAVYYCAADYVVSAFDYWGQGTQVTVSS” the entry was “low polyreactivity”; with “QVQLVESGGGVVQAGGSLRLSCAASGSTFYLTVLGWYRKAPGKERELVAASSSSGGSTYYADSVKGRFTISRDNAKNTVYLQMNSLKPEDTAVYYCNKVSAFPHYSGYAYWGQGTQVPVSS”, “low polyreactivity”; with “QVQLVDSGGRLLQAGGSLRLSSAASGLIFKRYAMGWYIQAPGKERELDAAITSGSSTNYADSVKGRFTISRDNAKNTVYLQMNSLKPEDTAVYYCARDVYFSPYYRRSFQWRFDYWGQGTQVTVSS”, “high polyreactivity”.

For “QVQHVESGGGLVQAGGSLRLSCAASGRTFYRYAMGWYRQAPGKERELVAAISGSGTSTSYADSVKGRFTISRDNAKNSVYLQMNSLKPEDTAVYYCAATYYVYYYSRYYFWGQGTQVTVSS”, the “polyreactivity (PSR sort gate)” value is reported as “high polyreactivity”.

On to “QVQLVESGGGLVQAGGRLRLSCAASGSIFIGYAMGWYRQAPGKERELVATISGSGGSTYYADSEKGRFTISRDNAKNTVSLQMNSLKPEDSAVYYCAAVSVSSWYDYWGQGTQVTVSS”, for which the “polyreactivity (PSR sort gate)” value is listed as “low polyreactivity”. In the case of “QVQLVESGGGLVHSGGSLRLSCAASGRIFLPYGMGWYRKAPGKERELVATITIGGSTTYADSVKGRFTISRDNAKNTVYLLMNSLKPEDTAVYYCAVLRWVYYLHGYDYWGHGTQVTVSS” it was “low polyreactivity”; in that of “QVQLVESGGGLVQAGGRLRLSCAASGSTFRRNAMGWYRQAPGKERELVATISPGARTNYADSVKGRFTISRDNAKNTVYLQMNSLKPEDTAVYYCNAEFTLLYPLYDYWGQGTQVTLSS”, “low polyreactivity”; in that of “QVQLVESGVGLVQAGGSLRLSCAASGFIFRKYTMGWYRQAPGKERELVATIDSSGGSTYYADSVKGRFTISRDNAKNTVYLQMNSLKPEDTAVYYCNADLRELSPWYWYSGEMDYWGQGTQVTVSS”, “low polyreactivity”. Take “QVQLVESGGGLVQAGGSLRLSCAASGSIFAYNAMGWYRQAPGKERELVAAISSGGRTKYADSVKGRFTISRDNAKNTVYLQMNSLKPEDTAVYYCAAESYTGKYSWVWKWYDYWGQGTQVTVSS”: the “polyreactivity (PSR sort gate)” value is reported as “low polyreactivity”. In the case of “QVHLVESGGGLVQAGGSLRLSSAASGITFVINAMGWYRQAPGKERELVASINFDTDTTYADSEKGRFTISRDNAKNTVYLQMNSLKPEDTAVYYCNADLPWARHTVDSIEFDYWGQGTQVTVSS” it was “low polyreactivity”; in that of “QVQLVESGGGLVQAGGSLRLSCAASGRSFDVNAMGWYRQAPGKERELVAAISTRGGGTYYADSVKGRFTISRDNAKTTVYLQMNSLKPEDTAVYYCNVVRRYGGRGFDYWGQGTQVTVSS”, “low polyreactivity”. With “QDQLVESGGGLVQAGGSLRLSCAASGRIFPVYAMGWYRQAPGKERELVATITSRTGRTYYADSVKGRFTISRDNAKITVYLQMNSLKPEDTAVYYCAARGYYSAPGYGYWGQGTQVTVSS” the entry was “high polyreactivity”; with “QVQLVESGGGLVQAGGSLRLSCAASGRIFGGYAMGWYRQAPGKERELVAAITFRSGTTYYADSVKGRFTISRDNAKNTVYLQMNSLKPEDTAVYYCAARWGPYAFTYVRTYDYWGQGTQVTVSS”, “low polyreactivity”.

“QVQLVESGGGLVQAGGSLRLSCAASGSTFYYYTMGWYRQAPGKEREFVAAITRSGGSTYYADSVKGRFTISRDNSKNTVYFQMNSLKPEDTAVYYCNVDGTSSSPFVQKHKEMDYWGQGTQVTVSS”: the “polyreactivity (PSR sort gate)” value is given as “low polyreactivity”.

As to “QVQLVESGGGLVQAGGSLRLSCAASGSTFYQYAMGWYRQAPGKERELVAAISKSGGSTYYADSVKGRFTISRDNAKNTVYLQMNSLKPEDTAVYYCATRWIKGRNMDYWGQGTQVTVSS”, the “polyreactivity (PSR sort gate)” value is on record as “high polyreactivity”.

For the sequence “QDQLVESGGGLVQAGGSLRLSCAASGLIFPYNAMGWYRQAPGKERELVAAIDTRGSSTYYADSVKGRFTISRDNAKNTVYLQMNSLKPEDTAVYYCIPRSGRSPTGFRYWGQGTEVTVSS”, the “polyreactivity (PSR sort gate)” value was “high polyreactivity”. For “QVQLVESGGGLVQAGGSLRLSCAASGRIFWDNAMGWYRQAPGKERELVAAISDSVVITYYADSVKGRFTISRDNAKNTVYLQMNSLKPEDTAVYYCAADKRGTVYLSSFWMDYWGQGTQVTVSS”, the “polyreactivity (PSR sort gate)” value is “low polyreactivity”. In the case of “QVQLVESGGGLVQAGGSLRLSCAASGRIFDQYAMGWYRQAPGKERELVAAITSGGSTYYADSVKGRFTISRDNAKNTVYLQMNSLKPEDTAVYYCAAEWQWYGYVLYKYYYWGQGTQVTVSS” it was “high polyreactivity”; in that of “QVQLVESGGGLVQAGGSLRLSCAASGSIFRRNTMGWYRQAPGKERELVAAITFTGGRTYYADSVKGRFTISRDYAKNTVYLQMNSLKPEDTAVYYCNRVTAYYPTKFDYWGQGTQVNVSS”, “high polyreactivity”; in that of “QVQLVESGGGLVQAGGSLRLSCAASGRIFYYYDMGWYRQAPGKERELVAAINYSGGSTYYADSVKGRFTISRDNAKNTVYLQMNSLKPEDTAVYYCAADGYYYYSYGTTDQDDYWGQGTQVTVSS”, “low polyreactivity”. In the case of “QVQLVESGGGLVQAGGSLRLSCAASGFIFGGNAMGWYRQAPGKERELVAAISSGGRTYYADSVKGRFTISRDNAKNTVYLQMNSLKPEDTAVYYCNAAEQKYSIYYAFDTGPYDYWGQGTQVTVSS” it was “low polyreactivity”; in that of “KVQLVESGGGLVQAGGSLRLSCAASGSISANYAMGWYRQAPGKERELVAAISRRGASTYYADSVKGRFTISRDNAKNTVYLQMNSLKPEDTAVYYCNAKKYHVPGVDYWGQGTQVTVSS”, “high polyreactivity”; in that of “QVQLVESVGGLVQAGGILRLSCAPSGSTFDVYAMGWYRQAPAKERELVAAISWTGGSTYYADSVKGRFTISRDNAKNTVYLQMNRLKPEDTAVYYCAAYEIQTPRIAHYVGCGRDYLGQGTQVTVSS”, “high polyreactivity”. With “QVQLVESGGGLVQAGGSLRLSCAASGSIFKDYAMGWYRQAPGKERELVAAITSGGRTNYADSVKGRFTISRDNAKNTVYLQMNSLKPEDTAVYYCAARKGKETLYHSTPPYYYWGQGTQVTVSS” the entry was “low polyreactivity”; with “QVQLVESGGGLVQAGGSLRLSCAASGFIFQPYAMGWYRQAPGKERELVAAITSRGGRTYYADSVKGRFTISRDNAMNTVYLLMNSLKPEDTAVYYCAKRYAVYVTHFSRIRWYNYWGQGTQVTVSS”, “low polyreactivity”; with “QVQLVESGGGLVQAGGSLRISCAASGRTFYYYVMGWYRQAPGKERELVAAISRGGRTYYADSVKGRFTISRDYAKNTVYLQMNSLKPEDTAVYSCNAVPRKSRHRYDYWGQGTQVTVSS”, “high polyreactivity”. In the case of “QVQLVESGGGLVQAGGSLRLSCAASGYIFYRYAMGWYRQAPGKEREFVASITKRGGRTFYADSVKGRFTISRDNAKNTVYLQMNSLKPEDTAVYYCARKAEYGTDMGYWGQGTQVTVSS”, the “polyreactivity (PSR sort gate)” value was “high polyreactivity”. In the case of “QVQLVESGGGLVQAGGSLRLSCAASGSISTWYAMGWYRQAPGKERELVAAINSGDSTYYADSVKGRFTISRDNAKNTVYLQMNSLKPEDTAVYYCAASSYSSKPFDYWGQGTQVTVSS”, the “polyreactivity (PSR sort gate)” value was “high polyreactivity”. In the case of “QDQLVDSGAGLLQAGGSLRLSCAASGFTFYGYAMGWYRQAPGKERELVASISWSGGTTYYADSVKGRFTISRDNAKNTVYLQMNSLKPEDTAVYYCNAVRYRYGVFPYYYWGQGTQVTESS”, the “polyreactivity (PSR sort gate)” value was “high polyreactivity”. In the case of “QVQLVESGGGLVQAGGSLRLSCAASGSIFGYYVMGWDRQAPGKERELVAAITRSGSTYYADSVKGRFTISRDNAKNTVYLQMNSLKPEDTAVYYCAADGSYYWYPHTTYDYWGQGTQVTVSS” it was “low polyreactivity”. As to “QVQLVESGGGLVQAGGSLRLSCAASGIIFPYNAMGWYRQAPGKERELVAAITYRDGSTYYADSVKGRFTISRDNAKNTVYLQMNSLKPEDTAVYYCAADRYVYWDLYGYWGQGTQVTVSS”, the “polyreactivity (PSR sort gate)” value was “low polyreactivity”. In the case of “QVQLVESGGGLVQAGGRLRLICAASASNFAGYDKGWYRQAPGKERELVAAITSGGDTYYADSVKGRFTISRDNAKNTGYLQMNSLKPEDTAVYYCNKDYILARYGGGRDYWGQGTQVTVSS” it was “low polyreactivity”; in that of “QVQLVESGGGLVQAGGSLRLSCAASGIIYYGYVMGWYRQAPGKERELVATITSSGGSKYYADSVKGRFTISRDNAKNTVYLQMNSLKPEDTAVYYCAADYYYGAWVRHDYWGQCTQVTVSS”, “low polyreactivity”.
